Laboratory results taken from paper PMC13649712 (2026).
Read-outs that look alike come from different tables or passages of the source.

What was measured:
[1] = biological target: T1, mouse PER1 1013-1291 R1111A (mouse, UniProt O35973 1013-1291, R1111A); assay: ITC
[2] = biological target: T1, mouse PER1 1013-1291 R1111A; assay: ITC; remark: listed apart in the source

Kd [1]: 9.8 nM
Kd [2]: 10 nM
B1: mouse CRY1 1-496 (PHR) (domain or fragment)
chain: MGVNAVHWFRKGLRLHDNPALKECIQGADTIRCVYILDPWFAGSSNVGINRWRFLLQCLEDLDANLRKLNSRLFVIRGQPADVFPRLFKEWNITKLSIEYDSEPFGKERDAAIKKLATEAGVEVIVRISHTLYDLDKIIELNGGQPPLTYKRFQTLVSKMEPLEMPADTITSDVIGKCMTPLSDDHDEKYGVPSLEELGFDTDGLSSAVWPGGETEALTRLERHLERKAWVANFERPRMNANSLLASPTGLSPYLRFGCLSCRLFYFKLTDLYKKVKKNSSPPLSLYGQLLWREFFYTAATNNPRFDKMEGNPICVQIPWDKNPEALAKWAEGRTGFPWIDAIMTQLRQEGWIHHLARHAVACFLTRGDLWISWEEGMKVFEELLLDADWSINAGSWMWLSCSSFFQQFFHCYCPVGFGRRTDPNGDYIRRYLPVLRGFPAKYIYDPWNAPEGIQKVAKCLIGVNYPKPMVNHAEASRLNIERMKQIYQQLSRYRG
